Test system: MS2 coat protein
Experiment: apparent KD of MS2 coat protein; designed switch direction (-1 OFF switch, 1 ON switch): -1; higher = weaker reporter binding
In short: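 For each design, the apparent KD is the median over clusters of curves fitted to normalised cluster fluorescence. Clusters held RNA switches with common flanks, transcribed on Illumina chips by stalled E. coli RNA polymerase. These were titrated with SNAP-549-labelled MS2 coat protein, doubling from 0.7 or 1.5 nM to 3 µM, without input, with 200 uM small-molecule ligand, or with an oligonucleotide input.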

[1] = Eterna round: R95, input ligand: microRNA oligo, concentration not stated
[2] = input ligand: microRNA oligo, concentration not stated
[3] = Eterna round: R95, input ligand: FMN 200 uM
[4] = Eterna round: R95, input ligand: none

Sequence	apparent KD of MS2 coat protein (input ligand: FMN 200 uM) [nM]	apparent KD of MS2 coat protein (input ligand: none) [nM]	apparent KD of MS2 coat protein [1] [nM]	further results
GGUUUGCGGCAGGAUAUCCAUCCGCGGUAUGGUGGAGAAGGGCUGACAUGAGGAUCACCCAUGUGCGUCCUAGG [salish99_ex6_r4_018] (Eterna round: R97, puzzle: Exclusion 6)	24.6	18.8	–	–
ACAAGCUUUUGCUCGUCUUACAUGAGGAUCACCCAUGUCGGGAGCAUGCAUACGUCCAGCAUCUGGACCGUAGCAGA [-25.7, -49.8 kcal, 25% A] (Eterna round: R97, puzzle: Sensor, turn-off variant 1)	16.3	18.1	–	–
CCAGCGUAUGUGAGGAUAUGCUGGUCCUUGGAUCAGCAGAAGGCACAUGAGGAUCACCCAUGUAGAGACGUUGG [JL bmx4 3.43] (puzzle: Brourd's mod of Exclusion 4)	–	–	21.6	–
GACUUGUCAGGAUAUCUUACAUUUGCAUCGUAGUUACCGUUGGAGAAGGGACAUGAGGAUCACCCAUGUUUGGC [tap-tap-tappy24] (Eterna round: R97, puzzle: Exclusion 4)	26.6	28.9	–	–
UUGAGACAUGAGGAUCACCCAUGUAAGGAUAUAGUCGUCUGGUGGUCUCGGGUGGUGGCUAGAAGGUGCGUGCG [-15.7, 14.3 kcal, A 20%] (Eterna round: R97, puzzle: Exclusion 1)	241	239	–	–
UGUGUGUGACAGGAUAUGCAGGUAAUGAGACGGGUAGAAGGGUCUACAUGAGGAUCACCCAUGUGGCCGGUUGG [Ex6 #62] (Eterna round: R97, puzzle: Exclusion 6)	17.7	16.4	–	–
CCAUCGAGUGUGAGGAUAUGCUGGUCCAUAGAUCAGCAGAAGGCACAUGAGGAUCACCCAUGUGGAGACGGUGG [Mat - Exclusion 4 - JL Mod - D78] (Eterna round: R96, puzzle: Brourd's mod of Exclusion 4)	–	–	–	apparent KD of MS2 coat protein [2]: 31 nM
GUUAAACAUGAGGAUCACCCAUGUAAGGAUAUGCUGCGGUCGCGCUGACGUGACUGCAGCAGAAGGUACAAUUG [Mat - Mod of JL D51] (puzzle: Exclusion 1)	–	–	64.8	–
GUGUGCAGACGGAGAUCCUACAUGAGGAUCACCCAUGUCUCACUAGCUUUUUGCUCGUCUUAUCCUCCUCUGUUCUC [Elimod 26 - Jieux - Sensor, turn-off variant 1] (Eterna round: R97, puzzle: Sensor, turn-off variant 1)	295	497	–	–
AUAUUACAUGAGGAUCACCCAUGUGAGGAUAUGGAGAGCGACCGCCCGGUCGCGUACACCAGAAGGCGCAGGCG [1st #59] (Eterna round: R97, puzzle: Exclusion 1)	85.7	41.1	–	–
GAUUAUGCGAGCUUUAGGGACAUGAGGAUCACCCAUGUUCGUCUUAUUGGUCUAAGUGCACUAACAUACCUAAAUCU [JMF 30] (puzzle: Sensor v3, turn-off variant 1)	–	–	38.5	apparent KD of MS2 coat protein [3]: 21.2 nM; apparent KD of MS2 coat protein [4]: 20 nM
GAUUAUGCGAGCUUUAGGGACAUGAGGAUCACCCAUGUUCGUCUUAUUAGUCUGAAUACACUGACAUACCUAAAUCU [JMF 55] (puzzle: Sensor v3, turn-off variant 1)	–	–	19.5	apparent KD of MS2 coat protein [3]: 14.8 nM; apparent KD of MS2 coat protein [4]: 17.8 nM
GUGUAGAUAGGAUAUGCGUGAGUCUAGCGAAGCUAGGCUCUACAUGAGGAUCACCCAUGUAGAAGGGUCUACAC [Dot plot directed A v14] (puzzle: Exclusion 2)	–	–	17.3	–
AUAUUGUGAGGAUAUGAACUUAGUAUCGAAAGAUACAAAGUUCAGAAGGCACAUGAGGAUCACCCAUGUUUCUC [Long static hairpin v7] (Eterna round: R97, puzzle: Exclusion 4)	703	76.1	–	–
GAGCUAUGAGGAUAUGCAUAUAUACGGAUUCGUGUGGUACUACAUGAGGAUCACCCAUGUAGAAGGCGUGGCUG [JL-ex2-2.04 mat747 mod] (puzzle: Exclusion 2)	–	–	16.2	–
ACAACAAGCUUUUUGAACGUAGAACAUGCAGCUCUAGUCACAUGAGGAUCACCCAUGUCAGCCAGUUAGAUAGGUGA [JR_SV3TOV2_Sub066] (puzzle: Sensor v3, turn-off variant 2)	–	–	126	apparent KD of MS2 coat protein [3]: 93.6 nM; apparent KD of MS2 coat protein [4]: 127 nM
AGAGCACGAGGAUAUACAAGGAUAACUCGCAGAUCGUCAGUACAUGAGGAUCACCCAUGUAGAAGGUGUUAGCA [Eternabot (Original) Solution 6] (Eterna round: R97, puzzle: Exclusion 2)	41.2	58.9	–	–
GUACUGACAGGAUAUACAUGAGGAUCACCCAUGUGCCUUAUCGCUACAAAAGUAGCGAGUAGAAGGGUCUGUAC [Omei Ex3 Model Bachelor's Dilema v18] (Eterna round: R97, puzzle: Exclusion 3)	27.1	16.6	–	–

Sequence	apparent KD of MS2 coat protein (input ligand: FMN 200 uM) [nM]	apparent KD of MS2 coat protein (input ligand: none) [nM]	apparent KD of MS2 coat protein [1] [nM]	further results
GGAUCGAAUGUCAGGAUAUGCUGGUCCUUGGAUCAGCAGAAGGGACAUGAGGAUCACCCAUGUCCUCUCGGUCC [Eli bmx4 4.52] (Eterna round: R97, puzzle: Brourd's mod of Exclusion 4)	222	26.5	–	–
GCCGAUUAAGUGAGGAUAUACCUAUGGAUACAUAGGUAGAAGGCACAUGAGGAUCACCCAUGUUCCUCAACGGC [Fiskers BMX 4 - 6] (puzzle: Brourd's mod of Exclusion 4)	–	–	15	–
GGCCGUAAUAAGGAUAUCACUAGCCUCGGCUAGUGAGAAGGUAUUACAUGAGGAUCACCCAUGUGGUCAGGCCA [E6/4-B2] (Eterna round: R97, puzzle: Exclusion 6)	903	285	–	–
ACAUGUUAUCCAUGAUAUCACAUGAGGAUCACCCAUGUUAUGGCGAUUUUGAGGUGUAAGUUUGUUGCUCGUCUUAU [JR_STOV1_Sub059] (Eterna round: R97, puzzle: Sensor, turn-off variant 1)	54.5	65.3	–	–
AAGCCUCUUGUCAGGAUAUCUGUCGGUCCUCCAAGAGAGAAGGGACAUGAGGAUCACCCAUGUAAGCCCAGGGA [Qubere] (puzzle: Brourd's mod of Exclusion 4)	–	–	13.5	–
CAGUACUGAGGAUAUACAUGAGGAUCACCCAUGUGUGUGAGUUUUGGAUGAAUGUUAUGUAGAAGGCGGUGCUG [JR_Ex3_Sub036] (Eterna round: R97, puzzle: Exclusion 3)	179	466	–	–
CCAGCGUGUGUGAGGAUAUGCUGGUCCUUGGAUCAGCAGAAGGCACAUGAGGAUCACCCAUGUGAGUACGUUGG [JL bmx4 3.34] (puzzle: Brourd's mod of Exclusion 4)	–	–	15	–
GCACUGCGAGGAUAUACAUGAGGAUCACCCAUGUGUCGGCAGACAUGGUUAAUCUAAGGUAGAAGGCGCGUAAA [JR_Ex3_Sub004] (Eterna round: R97, puzzle: Exclusion 3)	16.3	993	–	–
GCAAGCUUUUGCUCGCCUUACAUGAGGAUCACCCAUGUGGGCCCGGGCCCGGGCCCGCCGGGCCCGGGCCCGGGCCC [-59.4, -80.7 kcal, A 10%] (Eterna round: R97, puzzle: Sensor, turn-off variant 1)	26.5	32.2	–	–
UUGGUUGGUGUAGGAUAUGUAUGAGGAUCACCCAUUAAUAAAUUUUAACCACGAGGAUCACCCGUGUAGAAGGACAUUGGUUAU [pwkr exNG2 2xF5 1xFMN.22] (Eterna round: R96, puzzle: Exclusion NG 2)	52	57.4	–	apparent KD of MS2 coat protein [2]: 42.1 nM
CUGCAACAUGAGGAUCACCCAUGUCAGGAUAUUCCAAAAUCGUCGAAAGACGAUAACAGAAGAAGGGACAGUAG [Fiskxlusion 7 - Jieux - Exclusion 1] (Eterna round: R97, puzzle: Exclusion 1)	44	35.6	–	–
CAUGUGUAAGGAUAUGACAAUGGUAUCGAAAGAUACCAUUGUCAGAAGGUACAUGAGGAUCACCCAUGUAGAUC [Ex4-3: 19] (puzzle: Exclusion 4)	–	–	60.8	apparent KD of MS2 coat protein [3]: 342 nM; apparent KD of MS2 coat protein [4]: 86.3 nM
GCAUCGUAAGGAUAUCAGCCGGUGGUAUACCGAAACAGGGUUGAGAAGGUACAUGAGGAUCACCCAUGUGAUUU [Eternabot (L2) Solution 37] (Eterna round: R97, puzzle: Exclusion 4)	203	58.6	–	–
GAGAAAUUAUAGGAUAUCGUAAGGAUAAUUUAACGAGAAGGAUGAACAUGAGGAUCACCCAUGUGGUAUCAUGG [JL-ex6-3.12] (puzzle: Exclusion 6)	–	–	184	apparent KD of MS2 coat protein [3]: 191 nM; apparent KD of MS2 coat protein [4]: 465 nM
UCGUGGAUCGAGGAUAUGCCACGGACAGACGCCGCAGAAGGCGAAACAUGAGGAUCACCCAUGUGUGCCAUCCU [Eternabot (L1) Solution 52] (Eterna round: R97, puzzle: Exclusion 6)	58.5	56.5	–	–
CACCUGAGAGGAUAUACGUUGAUGUUAUGCUAUGGAAAGUUACAUGAGGAUCACCCAUGUAGAAGGCUCAGGUA [Eternabot (L2) Solution 48] (Eterna round: R97, puzzle: Exclusion 2)	75.4	18.8	–	–
ACCGAACAUGAGGAUCACCCAUGUGAGGAUAUCCCGAGAUUAAAUGCCGCAAGAAGGCGGAGAAGGCGCAUGGG [Ditiesre] (puzzle: Exclusion 1)	–	–	23.7	apparent KD of MS2 coat protein [3]: 45.2 nM; apparent KD of MS2 coat protein [4]: 31.3 nM

Reference: the supplement of paper PMC9170038
